Test results taken from PMC6737007.

How the values were obtained:
[1] = target: single A140C mutant of the VSD of KVAP channel; assay: SEC; Superdex 200 in 20-mM Tris-HCl, 150-mM NaCl, pH 5.5, 0.3% DPC, calibrated by Stokes radii; with SDS-PAGE; VSD-KVAP A140C also after 1.5-mM DTT
[2] = target: second voltage-sensing domain (VSD-II) of the human NaV1.4 channel, residues 554-696, with C660S, C661S and C687S (human) (UniProt P35499); assay: NMR titration; 15N-labeled VSD-II titrated with unlabeled Hm-3 in buffer B with DPC/LDAO micelles (11/11 mM), pH 5.5, 45°C, 800 MHz; chemical shifts fitted with two sites on VSD-II and Hm-3 partitioning to micelles (K M = 90 μM)

Substance	stoichiometry N [1]	KD (K V), cytoplasmic binding site [2]	KD (K V), extracellular binding site [2]
single A140C mutant of the VSD of KVAP channel (domain or fragment)	2	–	–
gating modifier toxin Hm-3 from the crab spider Heriaeus melloteei (peptide)	–	7 µM	11 µM
